In patent US20230340607A1 (UNIVERSITY OF PITTSBURGH OF THE COMMONWEALTH SYSTEM OF …, published 2023):

How the values were obtained:
[1] = molecular target: T1, integrin β1 (UniProt P05556 21-798); assay: co-immunoprecipitation with anti-RAD51AP1 antibody from T47D cell lysate, immunoblot
T1 construct: also called ITGB1; integrin B1
Protocol: (§1) To identify the key molecules important for RAD51AP1-DYRK4 to modulate MEK signaling, the RAD51AP1 interactants were investigated with the Entrez Gene database. […] Immuno-precipitation was performed using the RAD51AP1 antibody in the T47D cells overexpressing E9-E2 or wtRAD51AP1.
(§2) Immunoprecipitation. The cells were seeded in 10 cm² dishes with 200 ng/ml for one week. After one week doxycycline treatment, doxycycline-induced T47D OE cells were freshly harvested and lysed in NETN-400 buffer ([…] Tris-HCL, pH 8.0, […] NaCl, 1 mM EDTA, and 0.5% Nonidet P-40) for 25 minutes on ice and then centrifugated for 25 minutes at 14,500 rpm. The supernatants were diluted with the same buffer without NaCl (NETN-0) to obtain a final concentration of NaCl at 150 mM and incubated with indicated antibodies for 2 hours at 4° C., and then added protein-G beads (Santa Cruz) overnight. The beads were washed three times with cell lysis buffer and the precipitated proteins were subjected to western blot analysis.

[2] = molecular target: c-Src (UniProt P12931 2-536); assay: as above
Protocol: as §1, §2

T1 sequence (P05556 21-798 limits assumed): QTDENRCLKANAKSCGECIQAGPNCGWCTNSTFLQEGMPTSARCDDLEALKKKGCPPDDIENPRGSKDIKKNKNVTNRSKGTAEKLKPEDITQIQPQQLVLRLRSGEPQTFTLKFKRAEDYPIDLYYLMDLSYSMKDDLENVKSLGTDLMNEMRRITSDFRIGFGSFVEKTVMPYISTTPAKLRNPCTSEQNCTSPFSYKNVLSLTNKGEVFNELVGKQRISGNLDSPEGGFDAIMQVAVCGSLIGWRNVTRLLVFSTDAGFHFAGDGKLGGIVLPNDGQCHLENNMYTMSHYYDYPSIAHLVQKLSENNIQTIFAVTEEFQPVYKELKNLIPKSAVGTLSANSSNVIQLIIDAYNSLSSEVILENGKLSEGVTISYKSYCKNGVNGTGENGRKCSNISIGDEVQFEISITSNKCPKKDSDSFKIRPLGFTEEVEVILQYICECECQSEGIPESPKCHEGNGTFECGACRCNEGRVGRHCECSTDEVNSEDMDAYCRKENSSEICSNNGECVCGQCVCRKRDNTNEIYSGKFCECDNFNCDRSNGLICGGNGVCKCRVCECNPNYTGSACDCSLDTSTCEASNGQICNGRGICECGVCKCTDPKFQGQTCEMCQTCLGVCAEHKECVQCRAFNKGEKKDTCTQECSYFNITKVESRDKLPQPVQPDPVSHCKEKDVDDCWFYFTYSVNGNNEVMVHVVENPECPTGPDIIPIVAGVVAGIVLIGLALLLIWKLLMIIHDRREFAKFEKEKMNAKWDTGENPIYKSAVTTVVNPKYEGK

B1: RAD51AP1-DYRK4 fusion protein (E9-E2 variant) (other)
chain: MVRPVRHKKPVNYSQFDHSDSDDDFVSATVPLNKKSRTAPKELKQDKPKPNLNNLRKEEIPVQEKTPKKRMALDDKLYQRDLEVALALSVKELPTVTTNVQNSQDKSIEKHGSSKIETMNKSPHISNCSVASDYLDLDKITVEDDVGGVQGKRKAASKAAAQQRKILLEGSDGDSANDTEPDFAPGEDSEDDSDFCESEDNDEDFSMRKSKVKEIKKKEVKVKSPVEKKEKKSKSKCNALVTSVDSAPAAVKSESQSLPKKVSLSSDTTRKPLEIRSPSAESKKPKWVPPGLKWMLKSQGNVI
notes: Expressed from a doxycycline-inducible lentiviral vector in T47D cells (co-IP, western blot), or endogenous in MDAMB361 cells (western blot); also called E9-E2 protein; E9E2 fusion
B1: no binding [1]; no binding [2].
